Series [1] concerns the target MAD^N (B-Pv) (Drosophila melanogaster) (UniProt P42003). As to the kind of experiment: EMSA. On the technique in general: A gel shift assay detects complexes by their altered migration in electrophoresis.
The target in series [2] is MAD full length (B-H) (Drosophila melanogaster) (UniProt P42003). As to the kind of experiment: EMSA. Particulars: approximately 100-fold lower than MAD^N.
Sequence of MAD full length (B-H) (Drosophila melanogaster) (P42003 whole entry): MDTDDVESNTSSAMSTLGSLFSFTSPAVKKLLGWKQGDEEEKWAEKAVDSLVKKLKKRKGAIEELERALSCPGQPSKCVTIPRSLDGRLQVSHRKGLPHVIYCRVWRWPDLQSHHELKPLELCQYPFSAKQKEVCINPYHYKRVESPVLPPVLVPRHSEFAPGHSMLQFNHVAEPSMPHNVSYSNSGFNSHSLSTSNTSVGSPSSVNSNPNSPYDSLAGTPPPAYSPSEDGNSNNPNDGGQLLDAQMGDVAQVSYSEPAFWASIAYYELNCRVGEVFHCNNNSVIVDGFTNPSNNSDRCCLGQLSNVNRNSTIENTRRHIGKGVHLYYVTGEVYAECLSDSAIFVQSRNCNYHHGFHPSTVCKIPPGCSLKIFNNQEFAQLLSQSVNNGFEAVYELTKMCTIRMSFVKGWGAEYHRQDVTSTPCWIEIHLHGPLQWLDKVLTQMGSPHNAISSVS

Sequence of MAD^N (B-Pv) (Drosophila melanogaster) (P42003 1-241): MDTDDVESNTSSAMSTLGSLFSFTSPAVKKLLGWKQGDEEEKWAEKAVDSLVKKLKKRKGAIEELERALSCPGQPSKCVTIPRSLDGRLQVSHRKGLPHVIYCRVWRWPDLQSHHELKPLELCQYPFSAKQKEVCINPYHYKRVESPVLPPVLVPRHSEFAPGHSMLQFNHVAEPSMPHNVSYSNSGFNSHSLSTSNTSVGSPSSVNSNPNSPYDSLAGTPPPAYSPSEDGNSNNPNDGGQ

In series [1] (increased affinity vs wild-type site, MBP fusion), “ATTC (double strand) [MAD binding site GCT to CGC]” showed a binding signal of 6 fold vs n15.

In series [1] (wild-type reference), “ATTC (double strand) [MAD binding site (FIG. 7B)]” yielded a binding signal of 1 reference.

With ATTC (double strand) [Vg 20 bp], the binding signal (fraction of MAD^N) in series [2] came to 0.01.
